Test results reported in the supplement of paper PMC9876800.

Tested on: peptide library, one residue held at a place counted from the S/T acceptor
Test: relative phosphorylation of the sub-library (ratio to the mean residue at this position); higher = residue favoured
Summary of the method: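 Each biotinylated degenerate peptide sub-library fixed one residue at one position around a central Ser/Thr and was incubated with a purified recombinant kinase, a human or orthologue construct, in 384-well plates. The 90 min reactions, under kinase-specific conditions, contained 50 μM peptide and 50 μM ATP spiked with γ-32P-ATP. Phosphorylation was read by phosphorimaging spots on streptavidin membranes and quantifying them by densitometry. Relative sub-library phosphorylation expresses each value as a ratio to the mean residue at that position.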

Sequence of VRK2, construct: Full length, human (Q86Y07 whole entry, looked up): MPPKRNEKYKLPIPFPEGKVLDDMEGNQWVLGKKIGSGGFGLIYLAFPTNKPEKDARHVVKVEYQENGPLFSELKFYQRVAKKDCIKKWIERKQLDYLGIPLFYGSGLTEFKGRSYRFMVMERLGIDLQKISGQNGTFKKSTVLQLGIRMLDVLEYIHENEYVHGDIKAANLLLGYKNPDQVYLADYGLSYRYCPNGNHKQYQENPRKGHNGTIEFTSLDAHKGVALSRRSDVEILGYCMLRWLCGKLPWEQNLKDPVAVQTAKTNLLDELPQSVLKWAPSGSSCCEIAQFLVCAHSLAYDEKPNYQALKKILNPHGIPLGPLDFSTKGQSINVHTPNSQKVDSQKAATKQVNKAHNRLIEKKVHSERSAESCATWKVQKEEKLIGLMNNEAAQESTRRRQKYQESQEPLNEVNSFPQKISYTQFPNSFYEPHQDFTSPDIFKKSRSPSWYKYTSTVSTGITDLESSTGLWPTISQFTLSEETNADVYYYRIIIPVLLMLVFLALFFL
Sequence of CAMK2B, construct: Full length, human (Q13554 whole entry, looked up): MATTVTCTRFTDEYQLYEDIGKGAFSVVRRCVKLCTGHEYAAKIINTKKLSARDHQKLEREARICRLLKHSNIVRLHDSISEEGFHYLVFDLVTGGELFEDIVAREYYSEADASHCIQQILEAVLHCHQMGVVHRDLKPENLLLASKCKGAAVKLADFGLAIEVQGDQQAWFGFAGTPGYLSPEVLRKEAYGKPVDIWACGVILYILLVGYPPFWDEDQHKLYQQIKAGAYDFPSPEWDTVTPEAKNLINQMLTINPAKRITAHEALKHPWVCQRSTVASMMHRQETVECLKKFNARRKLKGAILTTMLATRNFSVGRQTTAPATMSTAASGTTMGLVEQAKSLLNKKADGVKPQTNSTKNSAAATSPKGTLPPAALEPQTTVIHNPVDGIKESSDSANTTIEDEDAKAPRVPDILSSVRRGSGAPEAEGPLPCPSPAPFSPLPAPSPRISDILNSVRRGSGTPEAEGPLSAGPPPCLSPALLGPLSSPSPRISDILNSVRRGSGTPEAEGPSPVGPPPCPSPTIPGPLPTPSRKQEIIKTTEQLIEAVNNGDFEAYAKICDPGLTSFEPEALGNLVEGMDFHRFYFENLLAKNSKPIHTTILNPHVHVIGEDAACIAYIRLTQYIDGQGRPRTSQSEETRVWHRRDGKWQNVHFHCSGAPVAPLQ

CAMK2B, construct: Full length, human (from UniProt Q13554)
relative phosphorylation
Conditions	at +1	at +2	at +3	at +4	at -1	at -2	at -3	at -4	at -5
A fixed	0.454	0.673	1.07	0.895	0.744	1.02	0.589	0.903	0.883
D fixed	0.842	4.46	2.37	2.5	1.57	0.86	0.527	0.849	0.702
E fixed	1.45	3.53	2.59	2.45	1.32	1.05	0.627	1.21	0.659
F fixed	2.27	0.366	0.6	0.619	0.736	0.523	0.58	0.852	1.19
G fixed	0.573	0.828	1.26	1.09	1.06	1.46	0.774	1.04	0.836
H fixed	0.758	0.895	0.881	0.893	1.15	1.1	1.03	1.04	0.803
I fixed	1.52	0.405	0.575	0.529	0.482	0.336	0.325	0.729	1.08
K fixed	0.457	0.32	0.489	0.459	1.01	0.848	2.02	1.29	0.791
L fixed	1.1	0.332	0.729	0.506	0.738	0.367	0.382	0.707	1.71
M fixed	1.52	0.426	0.648	0.612	0.948	1.01	0.652	1.07	1.12
N fixed	0.837	1.3	1.13	1.05	1.48	1.38	0.929	0.983	0.749
P fixed	0.295	0.525	0.932	1.43	1.45	0.471	1.11	1.03	1.05
Q fixed	1.43	1.1	1.14	1.02	1.41	3.49	1.22	1.14	0.893
R fixed	0.566	0.381	0.438	0.458	0.795	1.06	4.44	1.3	1.16
V fixed	1.42	0.467	0.62	0.638	0.592	0.388	0.365	0.815	1.2
W fixed	0.534	0.397	0.701	0.983	0.486	0.992	0.758	0.958	1.16
Y fixed	0.988	0.593	0.827	0.882	1.03	0.651	0.679	1.09	1.03
pThr fixed	1.72	1.39	1.97	3.94	0.586	0.581	0.708	0.806	0.783
pTyr fixed	1.76	4.63	1.88	2.72	1.75	0.651	0.664	0.835	0.902

VRK2, construct: Full length, human (from UniProt Q86Y07)
relative phosphorylation
Conditions	at +1	at +2	at +3	at +4	at -1	at -2	at -3	at -4	at -5
A fixed	0.906	0.925	0.998	1.07	0.943	1	1.06	1.12	1.08
D fixed	0.579	0.622	0.675	0.977	0.788	0.836	0.812	0.845	0.97
E fixed	0.659	0.575	0.629	0.791	0.67	0.804	0.829	0.917	0.862
F fixed	0.883	1.23	1.05	1.04	0.86	0.978	0.971	0.957	0.974
G fixed	1.02	1.11	1.15	1.17	0.959	1.58	1.23	1.24	1.15
H fixed	0.842	0.985	1.28	1.14	1.39	1.04	1.12	1.04	1.17
I fixed	1.23	1.34	0.907	0.881	1.03	0.824	0.927	0.875	0.866
K fixed	0.949	0.924	0.875	0.887	1.04	0.919	0.881	0.945	0.979
L fixed	0.796	1.33	0.896	0.937	1.15	1.01	0.933	0.875	0.866
M fixed	1.01	1.27	0.872	0.954	1.02	1.16	0.98	0.96	0.885
N fixed	0.759	0.726	1.05	0.979	0.956	0.966	0.985	0.917	0.906
P fixed	1.15	0.703	0.759	1.03	1.1	1.08	1.27	1.22	1.16
Q fixed	1.13	0.873	0.875	0.905	0.914	0.969	0.878	0.887	0.922
R fixed	1.57	0.836	1.37	0.937	1.06	1.06	1.06	1.04	1.05
V fixed	1.53	1.07	0.935	0.912	1.22	0.877	0.936	0.996	0.974
W fixed	1.04	1.3	1.6	1.32	0.876	0.964	1.06	1.11	1.07
Y fixed	0.948	1.17	1.09	1.07	1.03	0.935	1.06	1.06	1.11
pThr fixed	0.648	0.686	0.733	1.08	0.83	0.792	0.923	1	1.01
pTyr fixed	0.826	0.883	0.914	1.4	0.861	0.8	0.982	1.02	0.981
